Consider seven substances from PMC6978714, “Protective Allele for Multiple Sclerosis HLA-DRB1*01:01 Provides Kinetic Discrimination of Myelin and Exogenous Antigenic Peptides” (Frontiers in Immunology, 2020).

The target of experiment [1] is T1, HLA-DRB1*15:01 (Homo sapiens, UniProt P01903+P01911). In words: Peptide binding ELISA (L243 capture, streptavidin-peroxidase). The conditions noted are these: thioredoxin-fused biotinylated MBP fragments 750 nM, HLA-DR 150 nM, overnight, 37°C. Here is the method:
DR/peptide complexes were then captured on the ELISA plate with immobilized L243 mAb (5 μg/ml in PBS) and blocked with 1% milk in PBS. HLA-DR-bound biotinylated peptide was quantitated with streptavidin-peroxidase (50 μl in PBST), using 3,3′,5,5′-tetramethylbenzidine (50 μl) as a substrate and stopping with 10% phosphoric acid (50 μl). ELISA was performed using standard protocol (https://www.abcam.com/protocols/sandwich-elisa-protocol).

Experiment [2] has as its target T2, HLA-DRB1*01:01 (Homo sapiens, UniProt P01903+P01911, A100R/D57E/F55L/F60I/F76Y/I96L/L162R/M171V/P40L/Q125E/R42F/V115G/Y59C). Described as above. The conditions noted are these: thioredoxin-fused biotinylated MBP fragments 750 nM, HLA-DR 150 nM, overnight, 37°C.
Experiment [3] addresses T1, HLA-DRB1*15:01. In words: Real-time ELISA kinetics of peptide loading (CLIP exchange) with or without HLA-DM. Type of experiment: binding. The conditions noted are these: thioredoxin-fused peptides 150 nM, HLA-DR 150 nM, HLA-DM 150 nM. Here is the method: A real-time ELISA assay was used to assess kinetics of peptide exchange on HLA-DR, catalyzed by HLA-DM. The linker connecting the CLIP peptide to the N-terminus of the HLA-DR β chain was cut with thrombin (1 h, 20 U/mg, at room temperature). DR-CLIP complexes (150 nM) were incubated with or without HLA-DM (150 nM, which was estimated as minimal concentration for maximal rate, see Figure S1) in the presence of biotinylated either synthetic or thioredoxin-fused HA, pp65, MBP, and chimeric peptides (150 nM, which was experimentally estimated as minimal concentration required for reliable detection), for 7, 5, 3, 1, and 0 h. Each time point was mixed separately starting from the end of incubation time (7 h) every 2 h, afterwards all time points were loaded into the plate.

In experiment [4] the target is T1, HLA-DRB1*15:01. Briefly: Kinetic competition assay with Trx-[pp65]bio in presence of HLA-DM. Type of experiment: binding. As to conditions: HLA-DRB1*15:01 150 nM, HLA-DM 150 nM, Trx-[pp65]bio 150 nM, competitor 0-1 μM. The method, then:
(§1) In a competition assay, kinetic experiments were carried out as described above. Kinetics were measured in the presence of increasing concentrations (0, 30, 100, 300, and 1,000 nM) of thioredoxin-fused HA, pp65, MBP, or chimeric peptides at timepoints 8, 6, 4, 2, and 0 h. Thioredoxin without any peptide was used as a control. ELISA was performed as done previously. All experiments were carried out in triplicates.

Experiment [5] addresses T1, HLA-DRB1*15:01. In words: 18 h competition assay with Trx-[pp65]bio. The conditions noted are these: HLA-DRB1*15:01 150 nM, Trx-[pp65]bio 150 nM, competitor 7.8 nM-1 μM. The class given is binding. The method, then: In a competition assay, biotinylated thioredoxin-fused HA and pp65 peptides (150 nM) were incubated with HLA-DR in the presence of HA, pp65, MBP or chimeric peptides (1,000, 500, 250, 125, 62.5, 31.2, 15.6, and 7.8 nM) for 18 h. Whole procedure was the same as described above.

The target in experiment [6] is T2, HLA-DRB1*01:01. In words: Real-time ELISA kinetics of peptide loading (CLIP exchange) with or without HLA-DM. The class given is binding. As to conditions: thioredoxin-fused chimeric peptides with C-terminal part of MBP151-164 or MBP88-100, 150 nM, HLA-DR 150 nM, with or without HLA-DM 150 nM.
The target of experiment [7] is T2, HLA-DRB1*01:01. In words: Kinetic competition assay with Trx-[HA]bio in presence of HLA-DM. The class given is binding. As to conditions: HLA-DRB1*01:01 150 nM, HLA-DM 150 nM, Trx-[HA]bio 150 nM, competitor 0-1 μM, 0-8 h. Here is the method:
as §1

The subject of experiment [8] is HLA-DR1. The conditions noted are these: direct binding to purified molecules; cited from earlier work. From the text:
(§2) MS therapeutic glatiramer acetate (GA) or Copaxone is a 40–100 amino acids polypeptide of a random sequence composed from alanine, lysine, glutamate, and tyrosine at a molar ratio of 4.5:3.6:1.5:1, respectively, that with high affinity binds directly to the purified HLA-DR1, -DR2, and -DR4 molecules ([45]). Combinatorial chemistry, which lays in the basis of GA, may result in assembling of multiple HLA class II epitopes, that at least in part may be not simply thermodynamically but rather kinetically preferable. Concluding our data provide novel vector of optimization of altered peptide ligand ...

Experiment [9] deals with HLA-DR2. As to conditions: direct binding to purified molecules; cited from earlier work.
Description: as §2

For experiment [10], the system named is HLA-DR4. The conditions noted are these: direct binding to purified molecules; cited from earlier work.
Description: as §2

No end group written: not given here. A value given as a limit tells only on which side of the number the result lay.

Take “MBP25−54: thioredoxin-fused MBP fragment of the MBP epitope library (ARHGFLPRHRDTGILDSIGRFFGGDRGAPK; not fully specified (N-terminus); also: fused to thioredoxin via (SGGGG)3S linker at N-terminus, His-tag, position not given here, biotinylated with Sulfo-NHS-LC-biotin, site not given here)”: in experiment [1], the “Binding of MBP epitope library to HLA-DRB1*15:01” value was “significantly diminished efficiency”.

Consider “MBP65−92: thioredoxin-fused MBP fragment of the MBP epitope library ({thioredoxin-(SGGGG)3S}-ARTAHYGSLPQKSHGRTQDENPVVHFFK; also: biotin (EZ-Link Sulfo-NHS-LC-biotin), places not given here, His-tag, end not given here)”, for which the “Binding of MBP epitope library to HLA-DRB1*01:01” value in experiment [2] is reported as “less efficiently bound”.

For “MBP130−156: thioredoxin-fused MBP fragment of the MBP epitope library (GRASDYKSAHKGFKGVDAQGTLSKIFK; not fully specified (N-terminus); also: fused to thioredoxin via (SGGGG)3S linker at N-terminus, His-tag, position not given here, biotinylated with Sulfo-NHS-LC-biotin, site not given here)”, the “Binding of MBP epitope library to HLA-DRB1*01:01” value in experiment [2] is listed as “less efficiently bound”. The “Binding of MBP epitope library to HLA-DRB1*15:01” value in experiment [1] is on record as “significantly diminished efficiency”.

As to “Trx-[MBP85−97]: thioredoxin-fused MBP85−97 (NPVVHFFKNIVTP; not fully specified (N-terminus); also: fused to thioredoxin via (SGGGG)3S linker at N-terminus, His-tag, position not given here, biotinylated with Sulfo-NHS-LC-biotin, site not given here)”, the “Rate of loading on HLA-DRB1*15:01 with or without HLA-DM” value in [3] is “similarly high rate”. For the same substance, the “Concentration from which binding of Trx-[pp65]bio was decreased” value in experiment [4] is 100 nM. The “Thermodynamic inhibition capacity in comparison with Trx-[pp65] and Trx-[pp65-MBP91-97]” value in [5] is reported as “up to half of order of magnitude greater”.

On to “Trx-[MBP88−100]: thioredoxin-fused MBP88−100 ({thioredoxin-(SGGGG)3S}-VHFFKNIVTPRTP; also: biotin (EZ-Link Sulfo-NHS-LC-biotin), places not given here, His-tag, end not given here)”, for which the “Capable of efficiently binding HLA-DRB1*01:01 (kinetic assay)” value in experiment [6] is “none”.

Turning to “Trx-[MBP151−164]: thioredoxin-fused MBP151−164 ({thioredoxin-(SGGGG)3S}-LSKIFKLGGRDSRS; also: biotin (EZ-Link Sulfo-NHS-LC-biotin), places not given here, His-tag, end not given here)”, the “Capable of efficiently binding HLA-DRB1*01:01 (kinetic assay)” value in experiment [6] is on record as “none”. Also, the “Concentration up to which the peptide failed to compete with Trx-[HA]bio” value in experiment [7] was over 1 µM.

glatiramer acetate: the “Binding to purified HLA-DR1” value in experiment [8] is reported as “high affinity”. Besides, the “Binding to purified HLA-DR2” value in [9] is on record as “high affinity”. Moreover, the “Binding to purified HLA-DR4” value in experiment [10] is on record as “high affinity”.
